This note sets out measurements from article PMC8610173.

This data set addresses NF-Y (NF-YA confirmed by supershift) ((K562 cells)) (UniProt P23511). The experiment in a line: EMSA. (In general: A gel shift assay detects complexes by their altered migration in electrophoresis.)

NF-Y (NF-YA confirmed by supershift) ((K562 cells)), sequence (P23511 whole entry): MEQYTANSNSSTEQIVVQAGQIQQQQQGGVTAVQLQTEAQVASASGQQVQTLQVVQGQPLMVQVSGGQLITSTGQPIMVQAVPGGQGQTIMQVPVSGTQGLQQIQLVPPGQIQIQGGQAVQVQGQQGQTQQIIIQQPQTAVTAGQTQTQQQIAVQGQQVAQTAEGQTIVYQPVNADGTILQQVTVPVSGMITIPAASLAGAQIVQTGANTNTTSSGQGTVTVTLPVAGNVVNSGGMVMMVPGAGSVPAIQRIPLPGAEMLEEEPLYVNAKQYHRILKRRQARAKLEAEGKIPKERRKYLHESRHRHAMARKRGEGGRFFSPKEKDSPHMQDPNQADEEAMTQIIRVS

Consider “AGCCTTGCCTTGACCAATAGCCTTGACAA (double strand) [HBG distal CCAAT box WT]”, for which the binding signal (fold of WT band intensity (reference)) is 1.

As for “AGCCTTGCCTTGACCAATCGCCTTGACAA (double strand) [HBG distal CCAAT box -110 A>C]”, the binding signal (fold of WT band intensity) came to 1.5.
